“And” between values parts separate entries of the source, which are not always exact repeats. Equal entries are not always repeated.
Assays:
人TNFα [1] = target: T1, 人TNFα (human, UniProt P01375 77-233); assay: cell-based or functional assay
人TNFα [2] = target: T1, 人TNFα; assay: ELISA, plate coated at 0.1 ug/well, antibody dilution series
人TNFα [3] = target: T1, 人TNFα; assay: SPR (Biacore), TNFa coupled to the chip, antibody as analyte
人TNFα [4] = target: T1, 人TNFα; assay: cell-based or functional assay; remark: listed apart in the source

T1 sequence (P01375 77-233 limits assumed): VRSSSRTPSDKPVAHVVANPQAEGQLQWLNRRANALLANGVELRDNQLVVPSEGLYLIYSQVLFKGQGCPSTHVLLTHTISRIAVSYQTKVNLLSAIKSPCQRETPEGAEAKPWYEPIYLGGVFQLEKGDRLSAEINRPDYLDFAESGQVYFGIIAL

| IC50(pM), L929细胞保护试验 (人TNFα [1]) | IC50(pM), L929细胞保护试验, 平均值 (人TNFα [1]) [pM] | lowest detected concentration relative to humira (人TNFα [2]) | Kd (人TNFα [3]) [nM] | koff (人TNFα [3]) [s⁻¹] | kon (人TNFα [3]) [M⁻¹ s⁻¹] | IC50 relative to humira, L929细胞保护试验 (人TNFα [4]) | neutralising activity relative to humira, L929细胞保护试验 (人TNFα [4]) | Binder |
| --- | --- | --- | --- | --- | --- | --- | --- | --- |
| 0.56 pM and 0.938 pM and 0.46 pM | 0.51 | 0.5 fold of humira | 0.326 | 0.000185 | 568000 | ~0.2 fold of humira IC50 | ~5 fold of humira | 抗人TNFa抗体-01 (antibody, human IgG1, kappa, also called 抗人TNFa-01; pCI-TNF-01) heavy: not shown light: EIVLTQSPDFQSVTPKEKVTITCRASQFVGYSIHWYQQKPDQSPKLLIKYASESRSGVPSRFSGSGSGTDFTLTINSLEAEDAATYYCQQSHSWHFTFGQGTKLEIKRTVAAPSVFIFPPSDEQLKSGTASVVCLLNNFYPREAKVQWKVDNALQSGNSQESVTEQDSKDSTYSLSSTLTLSKADYEKHKVYACEVTHQGLSSPVTKSFNRGEC |
| 0.34 pM and 0.25 pM and 0.234 pM | 0.275 | 0.5 fold of humira | 0.33 | 0.000188 | 571000 | ~0.1 fold of humira IC50 | ~10 fold of humira | 抗人TNFa抗体-02 (antibody, human IgG1, kappa, Full-length human IgG1 made in CHO cells; Same doubt about plain or PEGylated form as for m1; also called 抗人TNFa-02; pCI-TNF-02) heavy: not shown light: EIVLTQSPDFQSVTPKEKVTITCRASQFVGYSIHWYQQKPDQSPKLLIKYASESRSGVPSRFSGSGSGTDFTLTINSLEAEDAATYYCQQSHSWHFTFGQGTKLEIKRTVAAPSVFIFPPSDEQLKSGTASVVCLLNNFYPREAKVQWKVDNALQSGNSQESVTEQDSKDSTYSLSSTLTLSKADYEKHKVYACEVTHQGLSSPVTKSFNRGEC |

From patent CN102127167A (SUZHOU IND PARK CHENJIAN ANTIBODY GROUP PHARMACEUTICAL DEV …, dated 2011)
